Source: publication PMC3364340

Experiments:
[1] = biological target: TrkA, on human TF1 erythroleukemia cells (human (endogenous in TF1)) (UniProt P04629)
[2] = biological target: p75NTR, endogenous in rat primary hippocampal neurons (rat (endogenous in rat hippocampal neurons)) (UniProt P07174)
Chain of UniProt P07174 (P07174 30-425): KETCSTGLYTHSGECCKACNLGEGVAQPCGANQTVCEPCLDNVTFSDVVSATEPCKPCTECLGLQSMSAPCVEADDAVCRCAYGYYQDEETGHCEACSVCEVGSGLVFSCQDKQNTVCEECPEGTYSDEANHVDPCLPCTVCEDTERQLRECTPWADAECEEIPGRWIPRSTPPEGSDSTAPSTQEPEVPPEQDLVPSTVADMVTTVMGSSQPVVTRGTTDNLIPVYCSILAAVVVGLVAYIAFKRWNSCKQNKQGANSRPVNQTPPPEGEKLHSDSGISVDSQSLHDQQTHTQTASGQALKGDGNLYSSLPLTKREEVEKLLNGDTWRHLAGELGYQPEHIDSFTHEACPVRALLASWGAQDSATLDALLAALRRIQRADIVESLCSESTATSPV

Chain of UniProt P04629 (P04629 33-796): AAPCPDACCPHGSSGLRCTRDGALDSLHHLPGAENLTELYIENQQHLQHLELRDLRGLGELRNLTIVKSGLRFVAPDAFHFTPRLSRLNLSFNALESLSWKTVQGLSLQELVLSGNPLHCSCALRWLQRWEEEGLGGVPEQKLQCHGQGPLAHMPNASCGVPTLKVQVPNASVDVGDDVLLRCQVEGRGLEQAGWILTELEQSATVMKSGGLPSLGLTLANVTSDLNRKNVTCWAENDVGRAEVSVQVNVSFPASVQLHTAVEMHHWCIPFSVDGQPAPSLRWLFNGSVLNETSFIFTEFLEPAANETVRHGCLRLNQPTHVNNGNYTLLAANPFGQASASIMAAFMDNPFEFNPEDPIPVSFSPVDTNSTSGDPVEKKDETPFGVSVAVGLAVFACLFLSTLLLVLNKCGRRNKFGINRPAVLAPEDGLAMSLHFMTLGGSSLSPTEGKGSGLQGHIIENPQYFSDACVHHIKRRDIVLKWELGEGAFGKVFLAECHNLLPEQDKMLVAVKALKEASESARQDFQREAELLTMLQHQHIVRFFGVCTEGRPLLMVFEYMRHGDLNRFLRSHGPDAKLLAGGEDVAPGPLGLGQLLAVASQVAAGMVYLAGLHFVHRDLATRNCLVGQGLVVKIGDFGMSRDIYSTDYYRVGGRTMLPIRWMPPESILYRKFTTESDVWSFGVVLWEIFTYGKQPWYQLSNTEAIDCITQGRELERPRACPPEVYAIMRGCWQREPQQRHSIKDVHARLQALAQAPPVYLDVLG

Substance	proliferative index, proliferation of human TF1 cells expressing TrkA [1] [ng/mL]	c-jun Ser63 phosphorylation in hippocampal neurons (Western blot, site-specific anti-phospho c-jun antibody), reduction with respect to hNGF or hNGFP61S [2] [%]
hNGFP61S, human NGF tagged with the single-residue epitope P61S (ligand)	1.68	–
hNGFP61S/R100E, double mutant of human NGF ("painless" hNGF) (ligand)	1.89	30
hNGFR100E, human NGF mutant R100E (from UniProt P01138 122-241) (ligand)	1.28	30
